# Measured values published in patent US20150010572A1 (SAMSUNG ELECTRONICS, published 2015).
# T1: recombinant hAng-2 (C-His, R&D Systems) (human, UniProt O15123 19-496)
# T1 construct: Bought protein; also called human Ang-2 protein; not shown: C-terminal His tag
# T1 sequence: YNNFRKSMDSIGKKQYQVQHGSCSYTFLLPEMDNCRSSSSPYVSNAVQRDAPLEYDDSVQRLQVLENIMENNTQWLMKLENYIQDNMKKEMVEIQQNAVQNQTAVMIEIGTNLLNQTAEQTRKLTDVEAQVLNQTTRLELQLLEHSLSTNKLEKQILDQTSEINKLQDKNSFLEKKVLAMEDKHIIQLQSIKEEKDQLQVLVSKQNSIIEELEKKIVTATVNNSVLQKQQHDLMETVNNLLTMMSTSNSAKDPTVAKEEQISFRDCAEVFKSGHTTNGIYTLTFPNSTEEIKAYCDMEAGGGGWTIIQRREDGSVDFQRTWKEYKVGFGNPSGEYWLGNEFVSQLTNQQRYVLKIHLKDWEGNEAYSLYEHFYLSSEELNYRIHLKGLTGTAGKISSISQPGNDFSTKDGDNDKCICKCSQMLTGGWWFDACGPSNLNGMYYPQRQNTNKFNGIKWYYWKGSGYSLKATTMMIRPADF
# T2: mutant Ang-2 protein, I434 substituted with alanine (FLAG-tagged at N-terminal) (human, UniProt O15123 281-496, limits assumed)
# T2 construct: also called 1434
# T2 chain: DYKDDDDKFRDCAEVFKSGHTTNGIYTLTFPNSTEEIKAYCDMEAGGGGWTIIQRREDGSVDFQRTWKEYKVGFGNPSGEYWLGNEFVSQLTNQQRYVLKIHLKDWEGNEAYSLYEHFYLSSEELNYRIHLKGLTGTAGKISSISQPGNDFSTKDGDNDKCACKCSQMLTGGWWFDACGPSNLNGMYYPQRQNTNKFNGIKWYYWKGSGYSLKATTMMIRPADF
# T3: mutant Ang-2 protein, K468 substituted with alanine (FLAG-tagged at N-terminal) (human, UniProt O15123 281-496, limits assumed)
# T3 chain: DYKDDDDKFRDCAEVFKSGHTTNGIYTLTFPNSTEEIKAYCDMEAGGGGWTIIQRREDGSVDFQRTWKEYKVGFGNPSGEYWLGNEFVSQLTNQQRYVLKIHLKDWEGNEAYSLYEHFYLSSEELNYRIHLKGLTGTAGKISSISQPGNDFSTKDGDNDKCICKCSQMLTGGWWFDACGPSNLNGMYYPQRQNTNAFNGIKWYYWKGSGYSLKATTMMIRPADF
# T4: mutant Ang-2 protein, Q418 substituted with alanine (FLAG-tagged at N-terminal) (human, UniProt O15123 281-496, limits assumed)
# T4 construct: also called Q418A mutant protein; Ang-2 protein having Q418A mutation
# T4 chain: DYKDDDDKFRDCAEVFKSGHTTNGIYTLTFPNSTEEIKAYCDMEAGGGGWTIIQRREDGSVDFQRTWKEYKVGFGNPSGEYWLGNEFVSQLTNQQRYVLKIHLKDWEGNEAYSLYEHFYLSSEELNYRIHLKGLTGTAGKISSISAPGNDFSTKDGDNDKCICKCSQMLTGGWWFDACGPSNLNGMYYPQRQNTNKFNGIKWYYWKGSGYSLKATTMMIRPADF
# T5: Ang-2 (R&D systems; 623-AN-025/CF) (human, UniProt O15123 19-496)
# T5 sequence: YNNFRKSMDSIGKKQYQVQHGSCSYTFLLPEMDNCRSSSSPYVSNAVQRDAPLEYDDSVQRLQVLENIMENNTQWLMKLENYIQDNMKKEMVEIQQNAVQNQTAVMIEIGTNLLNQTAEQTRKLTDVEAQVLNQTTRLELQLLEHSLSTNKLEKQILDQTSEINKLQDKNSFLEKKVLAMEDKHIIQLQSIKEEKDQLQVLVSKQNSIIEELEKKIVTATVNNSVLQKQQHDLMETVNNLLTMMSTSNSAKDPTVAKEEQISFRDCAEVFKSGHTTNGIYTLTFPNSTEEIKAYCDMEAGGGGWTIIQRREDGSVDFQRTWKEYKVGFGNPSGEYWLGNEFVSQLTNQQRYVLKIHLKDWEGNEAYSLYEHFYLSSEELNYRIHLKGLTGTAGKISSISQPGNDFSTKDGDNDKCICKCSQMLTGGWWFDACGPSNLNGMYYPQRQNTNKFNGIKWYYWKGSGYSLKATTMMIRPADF
# What was measured:
# [1] = target: T1, recombinant hAng-2 (C-His, R&D Systems); test: SPR, BIAcore T100; hAng-2 (C-His) captured by anti-His antibody on CM5 chip, antibody flowed
# Method: The binding affinities of the above 3 kinds of antibodies to human Ang-2 protein were measured by a SPR technology using a BIAcore T100 (GE Healthcare). The SPR technology uses refractive index change of light which passes a sensor chip according to the state of materials coated onto the sensor chip, and if an antigen or an antibody is flowed onto a chip coated with the antigen or antibody, it causes changes in refractive index due to their binding and Kd values are thus calculated from the measured values.
# First, anti-His antibody was immobilized on a CM5 sensor chip (GE healthcare) up to 8,000 RU levels using a pH 5.0 acetate solution and an amine coupling kit (GE Healthcare). A recombinant hAng-2 (C-His, R&D Systems) protein was flowed onto the chip to be captured at 100 to 200 RU levels.
# [2] = target: T2, mutant Ang-2 protein, I434 substituted …; test: ELISA, antibody coated, 250 ng FLAG-tagged mutant Ang-2, anti-FLAG-HRP, OD450 relative to native Ang-2
# Method: (§1) Each well of a 96-well MaxiSorp™ flat-bottom plate (Nunc) was coated with 50 ul (microliter) of 1000 nM antibodies (Example 2). Then, the plate was washed five times with a 0.05% (v/v) Tween-20 containing PBS (PBST) and blocked with a 1% (v/v) BSA containing PBS at a room temperature for 2 hours. 250 ng of each mutant Ang-2 protein obtained by substituting S417, Q418, P419, N421, 1434, D448, A449, P452, Y460, N467, K468, or F469 residue of Ang-2 protein tagged with a FLAG sequence ([…], Sigma) at its N-terminal with alanine was added to each well of the plate, which was then allowed to react at a room temperature for 2 hours.
# (§2) The plate was washed five times with a 0.05% (v/v) Tween-20 containing PBS, reacted with an anti-FLAG antibody (SIGMA) conjugated with HRP which was diluted in a 1% (v/v) BSA containing PBS at a ratio of 1:5,000 (v/v) at a room temperature for 1 hour, and washed five times with a 0.1% (v/v) Tween-20 containing PBS.
# (§3) Finally, 50 ul of TMB substrates (Cell signaling) was added to each well of the plate to induce color development reaction at a room temperature for 3 min. and the reaction was ceased by the addition of 50 ul of Stop solution (Cell signaling) and then, OD450 values were measured on a plate reader (Molecular Devices). By comparing binding affinities with mutated Ang-2 to those of unmutated Ang-2, each epitope of Ang-2 antibodies was identified. The thus obtained measurement results of the binding affinities (%) of mutant Ang-2 against the binding affinity of the native Ang-2 are shown in the following Table 9.
# [3] = target: T3, mutant Ang-2 protein, K468 substituted …; test: as above
# Method: as §1, §2, §3
# [4] = target: T4, mutant Ang-2 protein, Q418 substituted …; test: as above
# Method: as §1, §2, §3
# [5] = target: mutant Ang-2 protein, A449 substituted with alanine (FLAG-tagged at N-terminal) (human) (UniProt O15123); test: as above
# [6] = target: T5, Ang-2 (R&D systems; 623-AN-025/CF); test: cell-based or functional assay
binder,measurement,setting,value
"SAIT-Ang-2-AB-m8B3 (antibody, V domains shown, also called KCLRF-BP-00293) VH: DVQLQESGPGLVKPSQSLSLSCTVTGYSIASDYAWNWIRQFPGNKVEWMGYINYRGNTDYNPSLKSRSSINRDTSKNQFFLQLNSVTTGDTATYYCARGNFEGAMDYWGQGTSVTVSS VL: TIVMTQTPKFLLVSAGDRITITCKASQSVSNDVAWYQQKPGQSPKLLIYYASNRYPGVPDRFTGSGYGTDFTFTISTVQAEDLAVYFCQQDYTSPWTFGGGTELEIK",Kd,[1],0.0086 nM
same,% at RBD binding (mutant Ang-2 against native Ang-2),[2],99.4%
same,% at RBD binding (mutant Ang-2 against native Ang-2),[3],105%
same,% at RBD binding (mutant Ang-2 against native Ang-2),[4],4.1%
same,% at RBD binding (mutant Ang-2 against native Ang-2),[5],88.5%
same,Ang-2-depedent Cell Adhesion Degree (%),[6],23.6%
"SAIT-Ang-2-AB-m2E7 (antibody, V domains shown, also called KCLRF-BP-00294) VH: DLQLQESGPGLVKPSQSLSLTCTVTGYSITSDYAWNWIRQFPGNKLEWMGYISYSGSTSYNPSLKSRISITRDTSKNQFFLQLNSLTTEDTATYYCARGDYGNYVGPMDYWGQGTSVTVSS VL: SIVMTQTPKFLLVSAGDRVTITCKASQSVSNDVAWYRQKPGQSPKLLIYYASNRYTGVPDRFTGSGYGTDFTFTISTVQAEDLAVYFCQQDYSSPLTFGARTKLELK",Kd,[1],30.6 nM
same,% at RBD binding (mutant Ang-2 against native Ang-2),[2],102%
same,% at RBD binding (mutant Ang-2 against native Ang-2),[3],101%
same,% at RBD binding (mutant Ang-2 against native Ang-2),[4],0.6%
same,% at RBD binding (mutant Ang-2 against native Ang-2),[5],90.9%
same,Ang-2-depedent Cell Adhesion Degree (%),[6],28.1%
